Laboratory results as given in patent publication US20240200085A1 (AARHUS UNIVERSITET, published 2024).

Target: T1, GFP-tagged NFR5 (LjNFR5-sfGFP) (Lotus japonicus)
T1 construct: Full-length receptor with C-terminal sfGFP; In the co-IP it was expressed from pLjUbi in N. benthamiana leaves and extracted with detergent; In nodulation assays it was expressed from the native Nfr5 promoter in roots; also called NFR5-GFP
Test: co-immunoprecipitation (RFP-Trap) from N. benthamiana leaf extracts, anti-GFP and anti-mCherry immunoblot (FIG. 1J)
Procedure: The assay was performed as in Arora et al. (The Plant Cell 34, 7, 2806 (2022)). In short, N. benthamiana leaves were crushed to a powder in liquid nitrogen using a mortar and pestle, then incubated for 1 hour at 4° C. on a rotor in buffer containing 50 mM Tris-HCl (pH 7.5), 150 mM NaCl, 10% (v/v) glycerol, 2 mM EDTA, 5 mM DTT, 1 mM phenylmethylsulfonyl fluoride, Protease Inhibitor Cocktail (Sigma-Aldrich), and 1% (v/v) IGEPAL® CA-630 (Alfa Aesar) in a ratio of 2 mL/g tissue. Extracts were centrifuged at 4° C. and 4700 rpm for 30 minutes. Supernatants were directly incubated with RFP-Trap® Magnetic Agarose beads (ChromoTek®) overnight at 4° C. The beads were washed five times in buffer containing 50 mM Tris-HCl (pH 7.5), 150 mM NaCl, 10% (v/v) glycerol, 2 mM EDTA, Protease Inhibitor Cocktail (Sigma-Aldrich), and 0.5% (v/v) IGEPAL® CA-630 (Alfa Aesar) on ice. To release the proteins, 50 μL of SDS sample buffer (25 mM Tris-HCl, pH 6.8, 10% glycerol, 2% SDS, 0.2% 2-mercaptoethanol, 0.6 mg/mL Bromophenol blue) was added and samples were heated for 5 minutes at 95° C.
Proteins were separated on 12% SDS-polyacrylamide gels at 120 V for 3 h. Blotting to PVDF membranes (Merck) was done by wet transfer for 2 hours at 90 V. Membranes were blocked with 5% milk for 1 hour. […] Chemiluminescence was detected on a G-BOX (Syngene) using ECL Prime Western Blotting Detection Reagent (Cytiva).

T1 sequence (chain, as listed by the source limits assumed): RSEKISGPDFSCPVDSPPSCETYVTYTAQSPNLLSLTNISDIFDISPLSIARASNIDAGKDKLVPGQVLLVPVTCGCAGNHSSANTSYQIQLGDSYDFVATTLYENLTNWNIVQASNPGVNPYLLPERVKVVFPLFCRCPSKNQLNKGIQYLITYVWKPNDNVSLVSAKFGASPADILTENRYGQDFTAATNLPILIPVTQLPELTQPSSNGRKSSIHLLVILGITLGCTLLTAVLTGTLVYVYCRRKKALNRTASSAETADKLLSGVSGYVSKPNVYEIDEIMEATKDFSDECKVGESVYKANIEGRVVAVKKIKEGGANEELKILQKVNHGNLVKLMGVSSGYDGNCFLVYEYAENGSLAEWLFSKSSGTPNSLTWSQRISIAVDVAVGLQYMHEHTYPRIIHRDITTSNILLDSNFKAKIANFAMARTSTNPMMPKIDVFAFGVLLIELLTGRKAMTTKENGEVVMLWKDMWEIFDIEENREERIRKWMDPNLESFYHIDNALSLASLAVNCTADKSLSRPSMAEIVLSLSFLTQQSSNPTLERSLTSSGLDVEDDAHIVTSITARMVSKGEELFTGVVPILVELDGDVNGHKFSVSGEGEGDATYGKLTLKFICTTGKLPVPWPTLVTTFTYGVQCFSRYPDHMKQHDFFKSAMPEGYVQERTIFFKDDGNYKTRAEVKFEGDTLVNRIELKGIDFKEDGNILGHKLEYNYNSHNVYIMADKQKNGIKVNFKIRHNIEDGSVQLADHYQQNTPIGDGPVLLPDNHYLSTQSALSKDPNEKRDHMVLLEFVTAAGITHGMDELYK

B1: VHHLaG16m-tagged mCherry (mCherry_20linker_mutNbsfGFP-HA) (VHH)
VHH: QVQLVESGGRLVQAGDSLRLSCAASGRTWSTSAMAWFRQAPGREREFVAAITWWVGNTILGDSVKGRFTISRDRAKNTVDLQMDNLEPEDTAVYYCSARSRWYVLSVLRSVDSYDYWGQGTQVTVSS
notes: Construct EC32015, expressed in N. benthamiana leaves; LaG16 was engineered to carry three bulky tryptophan residues in the paratope; also called mCherry mutNb; mutated LaG16; not shown: mCherry red fluorescent protein (engineered); 20-residue linker ('20linker'); HA tag
- binding result: no binding
